Data taken from publication PMC10197565 (bioRxiv, 2023).

Biological target: the molecule itself
Experiment: cryo-EM structure

B1: MBP-Vpu full length (HIV-1 Vpu fused to maltose binding protein) (natural protein)
chain: MQPIPIVAIVALVVAIIIAIVVWSIVIIEYRKILRQRKIDRLIDRLIERAEDSGNESEGEISALVEMGVEMGHHAPWDVDDL
B1 was tested, and the “stoichiometry N” value was 6.
